Results on 2 molecules are retold here after publication PMC10201420, “Structural basis for guide RNA selection by the RESC1–RESC2 complex”.

The target in one series is T1, RESC1;RESC2 (Trypanosoma brucei;Trypanosoma brucei, UniProt Q57XL7;Q586X1 22-473;33-492, |).
T1 sequence 1: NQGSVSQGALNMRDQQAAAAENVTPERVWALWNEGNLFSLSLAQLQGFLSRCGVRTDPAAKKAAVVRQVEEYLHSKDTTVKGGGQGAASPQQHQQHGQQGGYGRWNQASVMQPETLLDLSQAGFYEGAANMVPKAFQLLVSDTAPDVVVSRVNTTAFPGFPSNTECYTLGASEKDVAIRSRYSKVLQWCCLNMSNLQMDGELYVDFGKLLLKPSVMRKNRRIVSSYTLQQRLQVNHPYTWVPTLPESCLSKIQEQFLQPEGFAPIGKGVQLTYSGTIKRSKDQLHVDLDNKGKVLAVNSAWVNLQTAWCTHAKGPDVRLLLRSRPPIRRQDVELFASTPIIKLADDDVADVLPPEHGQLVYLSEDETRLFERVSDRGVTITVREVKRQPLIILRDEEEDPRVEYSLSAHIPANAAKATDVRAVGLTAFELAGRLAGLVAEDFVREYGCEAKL
T1 sequence 2: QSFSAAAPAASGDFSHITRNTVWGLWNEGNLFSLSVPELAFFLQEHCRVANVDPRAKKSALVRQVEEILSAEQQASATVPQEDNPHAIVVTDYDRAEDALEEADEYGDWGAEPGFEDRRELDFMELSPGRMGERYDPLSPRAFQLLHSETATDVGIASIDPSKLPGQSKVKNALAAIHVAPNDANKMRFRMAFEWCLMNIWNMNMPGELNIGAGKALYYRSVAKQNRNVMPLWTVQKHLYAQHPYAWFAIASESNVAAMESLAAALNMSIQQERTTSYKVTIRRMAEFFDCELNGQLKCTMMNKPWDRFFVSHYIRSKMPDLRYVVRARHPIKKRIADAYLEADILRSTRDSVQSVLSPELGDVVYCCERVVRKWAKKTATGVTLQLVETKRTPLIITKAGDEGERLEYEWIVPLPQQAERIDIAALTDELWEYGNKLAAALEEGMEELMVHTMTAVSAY
As to the kind of experiment: analytical SEC; SEC: 20 mM HEPES pH 7.5, 2 mM MgCl2, 1 mM DTT, variable NaCl; purification at 4 C; exact binding assay salt and temperature not in material. The conditions noted are these: protein: recombinant;recombinant; tags: N-terminal 6xHis-3C (cleaved when needed);none; copies: 1;1.

In a further series the target is RESC1;RESC2 K311S/R402D (Trypanosoma brucei;Trypanosoma brucei, UniProt Q57XL7;Q586X1 22-473;33-492, |K311S;R402D). Described as above. Particulars: protein: recombinant;recombinant; tags: N-terminal 6xHis-3C (cleaved when needed);none; copies: 1;1.

B1: gRNA gND7(506), 5'-triphosphate (ssRNA)
RNA: GGGAUAUAAAUACGAUGUAAAUAACCUGUAGUAUAGUUAGUGUAUAUAGUGAAA
modifications: 5'-triphosphate
As to B1, the binding result with RESC1;RESC2 is given as “binds”; with RESC1;RESC2 K311S/R402D, “no binding”.

B2: gRNA gND7(506), 5'-hydroxyl (ssRNA)
RNA: B1 RNA
modifications: 5'-OH, no triphosphate
For B2, the binding result with RESC1;RESC2 is recorded as “no binding”.
